In publication PMC11123335:

Legend:
[1] = biological target: pentameric IgM HB617 (UniProt P01591)
[2] = biological target: hexameric IgM 2G12 (human); experiment: ELISA; competition: IgM coated (2 µg/mL); serially diluted ACB or AD2 mixed with a constant sC1q (10 µg/mL final); TBS with 2% PVP, 5 mM CaCl2, 1.5 mM MgCl2; room temperature; bound sC1q detected with anti-C1q HRP; relative IC50: OD at the highest mimetic value as 100%, without mimetic as 0%, approximate values
[3] = biological target: pentameric IgM 2G12 (UniProt P01591); experiment: as above
[4] = biological target: pentameric IgM HB617 (UniProt P01591); experiment: as above

competitive complement activation ELISA, reduction in C4b deposition by ACB against sC1q on coated 5IgM HB617; 8-fold (20% reduction) to 16-fold (w/w) excess of ACB over sC1q [1] [%]	maximal inhibition of sC1q binding [2] [%]	percent inhibition of sC1q binding at 2.5–20 µg/mL ACB (lower end) [2] [%]	relative IC50 [2] [µg/mL]	maximal inhibition of sC1q binding [3] [%]	relative IC50 [3] [µg/mL]	maximal inhibition of sC1q binding [4] [%]	relative IC50 [4] [µg/mL]	Substance
60	77	67 to 77	1.3	59	1.3	70	1.3	C1q mimetic ACB (single-chain globular region of C1q) (from UniProt P02745 115-245; P02747 115-245; P02746 117-253)
–	47	–	0.6	23	1.3	39	1.3	C1q mimetic ACB-AD2 (ACB fused to domain 2 of human serum albumin) (from UniProt P02745 115-245; P02747 115-245; P02746 117-253; P02768 211-403)
